The assay concerns the target T1, ITGA6.
T1 sequence (P23229 whole entry, species assumed, looked up): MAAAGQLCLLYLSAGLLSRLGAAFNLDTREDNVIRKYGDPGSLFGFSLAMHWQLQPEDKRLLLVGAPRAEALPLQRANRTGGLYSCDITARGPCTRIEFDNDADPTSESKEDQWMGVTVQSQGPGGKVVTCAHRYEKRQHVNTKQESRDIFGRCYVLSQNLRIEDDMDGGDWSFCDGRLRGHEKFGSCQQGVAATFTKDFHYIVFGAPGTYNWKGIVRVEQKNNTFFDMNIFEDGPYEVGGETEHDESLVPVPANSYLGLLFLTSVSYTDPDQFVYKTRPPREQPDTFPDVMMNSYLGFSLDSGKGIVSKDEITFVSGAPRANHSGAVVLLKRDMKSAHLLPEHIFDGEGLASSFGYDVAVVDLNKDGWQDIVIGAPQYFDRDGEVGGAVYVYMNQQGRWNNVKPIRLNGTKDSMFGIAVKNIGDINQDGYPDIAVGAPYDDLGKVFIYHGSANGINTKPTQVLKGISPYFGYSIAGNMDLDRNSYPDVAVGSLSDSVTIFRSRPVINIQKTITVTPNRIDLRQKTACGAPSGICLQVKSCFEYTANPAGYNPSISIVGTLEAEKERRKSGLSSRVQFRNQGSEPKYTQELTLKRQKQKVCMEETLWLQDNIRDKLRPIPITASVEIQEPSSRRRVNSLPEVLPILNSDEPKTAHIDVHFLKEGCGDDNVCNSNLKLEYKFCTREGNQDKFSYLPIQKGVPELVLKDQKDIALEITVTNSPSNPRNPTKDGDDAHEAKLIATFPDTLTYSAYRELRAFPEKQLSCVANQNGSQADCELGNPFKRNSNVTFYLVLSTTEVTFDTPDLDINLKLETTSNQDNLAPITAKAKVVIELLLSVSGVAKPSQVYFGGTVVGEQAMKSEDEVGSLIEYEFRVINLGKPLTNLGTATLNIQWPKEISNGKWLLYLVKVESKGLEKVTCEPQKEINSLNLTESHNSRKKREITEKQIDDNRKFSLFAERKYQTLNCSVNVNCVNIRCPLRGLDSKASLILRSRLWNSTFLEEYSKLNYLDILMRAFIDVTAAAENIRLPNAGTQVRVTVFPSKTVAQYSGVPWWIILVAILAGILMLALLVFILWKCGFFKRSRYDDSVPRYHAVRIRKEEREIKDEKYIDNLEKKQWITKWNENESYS
In words: ELISA on coated antigen, column ITGA6. In general terms: An ELISA detects its analyte on a solid surface through an enzyme-linked reagent.

Avelumab (antibody), sequence (VH): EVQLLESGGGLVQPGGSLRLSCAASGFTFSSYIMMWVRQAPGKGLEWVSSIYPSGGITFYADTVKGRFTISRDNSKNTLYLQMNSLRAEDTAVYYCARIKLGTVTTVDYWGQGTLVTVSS
Avelumab (antibody), sequence (VL): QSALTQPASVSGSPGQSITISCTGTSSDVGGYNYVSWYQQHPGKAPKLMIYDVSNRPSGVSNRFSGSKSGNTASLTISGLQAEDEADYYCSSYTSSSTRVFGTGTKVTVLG

On to Avelumab (antibody), for which the absorbance at 490 nm is 0.6.

(Values after patent publication US20190322750A1.)
